According to article PMC4746669, “Attenuation of ligand-induced activation of angiotensin II type 1 receptor signaling by the type 2 receptor via protein kinase C” (Scientific Reports, 2016):

B1: FLAG-AT2R-CFP (angiotensin II type 2 receptor) [human] / HA-AT1R-YFP (angiotensin II type 1 receptor) [human] (parent)
chain 1: MKGNSTLATTSKNITSGLHFGLVNISGNNESTLNCSQKPSDKHLDAIPILYYIIFVIGFLVNIVVVTLFCCQKGPKKVSSIYIFNLAVADLLLLATLPLWATYYSYRYDWLFGPVMCKVFGSFLTLNMFASIFFITCMSVDRYQSVIYPFLSQRRNPWQASYIVPLVWCMACLSSLPTFYFRDVRTIEYLGVNACIMAFPPEKYAQWSAGIALMKNILGFIIPLIFIATCYFGIRKHLLKTNSYGKNRITRDQVLKMAAAVVLAFIICWLPFHVLTFLDALAWMGVINSCEVIAVIDLALPFAILLGFTNSCVNPFLYCFVGNRFQQKLRSVFRVPITWLQGKRESMSCRKSSSLREMETFVS
chain 2: MILNSSTEDGIKRIQDDCPKAGRHNYIFVMIPTLYSIIFVVGIFGNSLVVIVIYFYMKLKTVASVFLLNLALADLCFLLTLPLWAVYTAMEYRWPFGNYLCKIASASVSFNLYASVFLLTCLSIDRYLAIVHPMKSRLRRTMLVAKVTCIIIWLLAGLASLPAIIHRNVFFIENTNITVCAFHYESQNSTLPIGLGLTKNILGFLFPFLIILTSYTLIWKALKKAYEIQKNKPRNDDIFKIIMAIVLFFFFSWIPHQIFTFLDVLIQLGIIRDCRIADIVDTAMPITICIAYFNNCLNPLFYGFLGKKFKRYFLQLLKYIPPKAKSHSNLSTKMSTLSYRPSDNVSSSTKKPAPCFEVE

Variants of: B1
Test: FRET fluorescence microscopy in live HeLa cells (corrected FRET, FRETC)
Conditions: with HA-AT1R-YFP (angiotensin II type 1 receptor) [human]; value read at the end of the time course (about 50 min after AII stimulation at time 0); HeLa cells 24 h after transfection; n = 4; parent: 1.3; read off a …

Row | response | Variant
1 | 0.97 -fold | chain 1 S352A S353A S354A
